Laboratory results taken from article PMC3229523, “Identification of Lactoferricin B Intracellular Targets Using an Escherichia coli Proteome Chip” (PLoS ONE, 2011).
Ends that are not written are not given here.

Assays:
Assay in all cases: fluorescence polarisation; 100 nM DyLight 549-labeled LfcinB as tracer; two-fold serial dilution of protein from 0.4 µM to 0.025 µM in PBS, 0.005% BSA, 0.01% Triton X-100; room temperature, 1 h; compared with BSA
Details in all cases: both partners purified
[1] = target: T1, HyaF (E. coli K-12, UniProt P19932 1-285)
T1 construct: HyaF, E. coli K-12
T1 sequence (looked up): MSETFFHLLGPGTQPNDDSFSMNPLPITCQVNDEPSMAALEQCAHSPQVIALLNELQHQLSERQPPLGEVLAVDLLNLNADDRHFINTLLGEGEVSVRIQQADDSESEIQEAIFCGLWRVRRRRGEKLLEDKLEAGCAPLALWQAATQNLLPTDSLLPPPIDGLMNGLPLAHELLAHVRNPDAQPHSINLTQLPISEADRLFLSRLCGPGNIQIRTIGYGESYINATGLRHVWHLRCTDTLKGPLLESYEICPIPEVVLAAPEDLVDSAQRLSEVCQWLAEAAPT

[2] = target: T2, MetL (E. coli K-12, UniProt P00562 1-810)
T2 construct: MetL, E. coli K-12
T2 sequence (looked up): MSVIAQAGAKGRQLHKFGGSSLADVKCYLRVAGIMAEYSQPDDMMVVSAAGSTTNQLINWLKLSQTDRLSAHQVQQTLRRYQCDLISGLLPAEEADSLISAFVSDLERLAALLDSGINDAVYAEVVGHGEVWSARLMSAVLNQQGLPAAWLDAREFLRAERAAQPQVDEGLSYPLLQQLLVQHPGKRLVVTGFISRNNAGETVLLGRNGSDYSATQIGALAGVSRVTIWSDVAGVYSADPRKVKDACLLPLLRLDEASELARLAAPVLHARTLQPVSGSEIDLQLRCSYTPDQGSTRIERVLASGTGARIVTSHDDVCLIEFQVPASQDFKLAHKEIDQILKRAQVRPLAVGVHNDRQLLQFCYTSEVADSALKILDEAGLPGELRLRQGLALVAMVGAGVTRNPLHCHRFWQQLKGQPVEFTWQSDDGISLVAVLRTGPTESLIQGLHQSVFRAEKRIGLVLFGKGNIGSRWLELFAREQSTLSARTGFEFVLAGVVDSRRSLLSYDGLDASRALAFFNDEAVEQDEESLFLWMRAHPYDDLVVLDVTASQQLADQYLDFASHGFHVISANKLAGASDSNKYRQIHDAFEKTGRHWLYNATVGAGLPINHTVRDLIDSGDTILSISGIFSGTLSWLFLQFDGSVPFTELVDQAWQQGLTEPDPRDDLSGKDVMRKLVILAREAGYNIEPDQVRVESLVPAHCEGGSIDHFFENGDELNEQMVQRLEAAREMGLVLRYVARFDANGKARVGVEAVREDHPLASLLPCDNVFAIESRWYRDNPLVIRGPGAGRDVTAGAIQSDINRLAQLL

[3] = target: T3, ribonucleoside-diphosphate reductase 2, β subunit (E. coli K-12, UniProt P37146 1-319)
T3 construct: NrdF, ribonucleoside-diphosphate reductase 2, β subunit, E. coli K-12; no measurement of the oligomer here; also called NrdF

[4] = target: T4, adenylate cyclase CyaA (E. coli K-12, UniProt P00936 1-848)
T4 construct: CyaA, adenylate cyclase, E. coli K-12
T4 sequence (looked up): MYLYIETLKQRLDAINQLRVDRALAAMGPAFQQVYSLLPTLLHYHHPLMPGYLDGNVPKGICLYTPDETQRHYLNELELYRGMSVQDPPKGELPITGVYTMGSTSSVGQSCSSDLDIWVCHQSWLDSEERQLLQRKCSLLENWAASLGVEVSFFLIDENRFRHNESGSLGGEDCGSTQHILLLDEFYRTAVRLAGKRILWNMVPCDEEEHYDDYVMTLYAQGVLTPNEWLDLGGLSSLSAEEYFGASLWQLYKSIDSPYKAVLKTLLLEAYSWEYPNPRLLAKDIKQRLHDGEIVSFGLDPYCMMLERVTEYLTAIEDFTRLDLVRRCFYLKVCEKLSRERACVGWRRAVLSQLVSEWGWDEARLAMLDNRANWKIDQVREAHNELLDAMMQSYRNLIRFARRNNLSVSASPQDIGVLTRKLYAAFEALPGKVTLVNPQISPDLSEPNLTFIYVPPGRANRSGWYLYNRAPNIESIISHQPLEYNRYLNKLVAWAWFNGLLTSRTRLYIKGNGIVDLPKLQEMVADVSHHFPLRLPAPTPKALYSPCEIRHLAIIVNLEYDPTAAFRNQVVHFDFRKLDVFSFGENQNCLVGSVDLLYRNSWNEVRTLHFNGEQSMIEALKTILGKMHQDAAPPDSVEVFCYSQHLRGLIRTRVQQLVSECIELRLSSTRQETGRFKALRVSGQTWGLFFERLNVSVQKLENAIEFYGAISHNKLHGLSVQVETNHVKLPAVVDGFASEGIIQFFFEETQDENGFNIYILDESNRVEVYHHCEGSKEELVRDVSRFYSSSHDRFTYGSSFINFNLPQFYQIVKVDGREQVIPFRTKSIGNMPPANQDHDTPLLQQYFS

Measured: binding result

T3 sequence (P37146 whole entry): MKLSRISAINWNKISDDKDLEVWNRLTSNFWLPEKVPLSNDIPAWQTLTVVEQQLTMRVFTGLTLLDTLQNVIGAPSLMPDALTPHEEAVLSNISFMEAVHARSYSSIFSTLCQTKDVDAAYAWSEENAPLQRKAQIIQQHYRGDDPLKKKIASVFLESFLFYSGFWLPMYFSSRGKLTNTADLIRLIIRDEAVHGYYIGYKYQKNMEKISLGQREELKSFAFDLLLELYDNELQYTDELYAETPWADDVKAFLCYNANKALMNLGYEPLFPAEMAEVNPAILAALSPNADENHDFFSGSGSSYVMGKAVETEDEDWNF

B1: DyLight 549-labeled Lactoferricin B (peptide, UniProt P24627 36-60, looked up)
peptide: FKCRRWQWRMKKLGAPSITCVRRAF
modifications: ends and bridges not checked; also: DyLight 549 label, sites not given here
notes: lactoferricin B (LfcinB), cationic antimicrobial peptide of 25 amino acids; also called fluorescence-labeled LfcinB; LfcinB; source: bought: Kelowna Inc; labelled with DyLight 549-NHS ester, desalted
binds: all assays above
